Test [1] addresses T1, NP of A/California/07/2009(H1N1/H1S) (influenza A virus, NYMC X-181 derived …). The experiment in a line: sandwich ELISA, capture IgG; NP of lysed virus titrated; HRP-NP16 detection.
In test [2] the target is T1, NP of A/California/07/2009(H1N1/H1S). Put plainly: sandwich ELISA, capture IgG; NP of lysed virus titrated; HRP-NP17 detection.
For test [3] the target is unchanged. The experiment in a line: ELISA on virus-infected fixed MDCK cells.

T1 sequence (P03466 whole entry): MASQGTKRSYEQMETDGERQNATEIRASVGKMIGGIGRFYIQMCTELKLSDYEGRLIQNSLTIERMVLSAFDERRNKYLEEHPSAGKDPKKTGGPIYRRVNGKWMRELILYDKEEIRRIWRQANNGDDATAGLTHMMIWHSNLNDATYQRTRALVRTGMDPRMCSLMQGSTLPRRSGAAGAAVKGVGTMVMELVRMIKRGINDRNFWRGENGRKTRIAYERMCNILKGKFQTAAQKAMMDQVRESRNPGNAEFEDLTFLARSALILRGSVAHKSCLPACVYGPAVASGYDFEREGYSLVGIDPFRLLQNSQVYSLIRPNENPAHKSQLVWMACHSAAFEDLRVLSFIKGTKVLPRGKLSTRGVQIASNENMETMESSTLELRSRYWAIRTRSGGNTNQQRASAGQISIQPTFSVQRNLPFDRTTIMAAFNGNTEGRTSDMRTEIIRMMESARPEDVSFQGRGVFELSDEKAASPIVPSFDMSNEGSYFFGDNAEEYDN

B1: NP21 (antibody, V domains shown)
VH: EVQLVESGGGLVQPGGSLRLSCAASGFTINGYGIHWVRQAPGKGLEWVAGIWPYGGSTFYADSVKGRFTISADTSKNTAYLQMNSLRAEDTAVYYCARFYNNHGGIMDYWGQGTLVTVSS
VL: DIQMTQSPSSLSASVGDRVTITCRASQDVYFYVAWYQQKPGKAPKLLIYGSRWLYSGVPSRFSGSGSGTDFTLTISSLQPEDFATYYCQQYSNFPVTFGQGTKVEIKR
On to B1, for which the EC50 in test [1] worked out at 2.67 nM; in test [2] it was 0.815 nM; in test [3] it was 0.73 nM.

B2: NP3 (antibody, V domains shown)
VH: EVQLVESGGGLVQPGGSLRLSCAASGFTISNYGIHWVRQAPGKGLEWVAGIWPFGGFTSYADSVKGRFTISADTSKNTAYLQMNSLRAEDTAVYYCARFHWNDHGYMDYWGQGTLVTVSS
VL: DIQMTQSPSSLSASVGDRVTITCRASQDVGWYVAWYQQKPGKAPKLLIYSTTGLYSGVPSRFSGSGSGTDFTLTISSLQPEDFATYYCQQYYNYPITFGQGTKVEIKR
As to B2, the EC50 in test [1] is 1.96 nM; in test [2], 0.834 nM; in test [3] it was 0.55 nM.

B3: NP14 (antibody, V domains shown)
VH: EVQLVESGGGLVQPGGSLRLSCAASGFTIDNGGIHWVRQAPGKGLEWVASIWPSWGSTSYADSVKGRFTISADTSKNTAYLQMNSLRAEDTAVYYCARFNFGVFGVMDYWGQGTLVTVSS
VL: DIQMTQSPSSLSASVGDRVTITCRASQDVDNDVAWYQQKPGKAPKLLIYGPRGLYSGVPSRFSGSGSGTDFTLTISSLQPEDFATYYCQQYSSWPLTFGQGTKVEIKR
B3: the EC50 in test [3] is 3.43 nM. In other words, the single-digit nanomolar range.

B4: NP6 (antibody, V domains shown)
VH: EVQLVESGGGLVQPGGSLRLSCAASGFTINDGSIHWVRQAPGKGLEWVAGIGPFGGFTYYADSVKGRFTISADTSKNTAYLQMNSLRAEDTAVYYCARSGYSGSFDYWGQGTLVTVSS
VL: DIQMTQSPSSLSASVGDRVTITCRASQDVYFGVAWYQQKPGKAPKLLIYGTSYLYSGVPSRFSGSGSGTDFTLTISSLQPEDFATYYCQQFSNWPITFGQGTKVEIKR
With B4, the EC50 in test [1] came out at 3.12 nM; in test [2], 3.07 nM; in test [3], 6.46 nM.

B5: NP9 (antibody, V domains shown)
VH: EVQLVESGGGLVQPGGSLRLSCAASGFTINNGWIHWVRQAPGKGLEWVAGIGPYWGFTSYADSVKGRFMISADTSKNTAYLQMNSLRAEDTAVYYCARFDSDHDHHYSYYYYYDNGYMDYWGQGTLVTVSS
VL: DIQMTQSPSSLSASVGDRVTITCRASQDVWFSVAWYQQKPGKAPKLLIYGTTSLYSGVPSRFSGSGSGTDFTLTISSLQPEDFATYYCQQYFNYPLTFGQGTKVEIKR
Regarding B5, the results for the EC50 in test [1] and in test [3] were 53.9 nM and 2.14 nM, respectively.

B6: NP5 (antibody, V domains shown)
VH: EVQLVESGGGLVQPGGSLRLSCAASGFTISNGSIHWVRQAPGKGLEWVAGIWPSGGSTSYADSVKGRFTISADTINNSAYLQMNSLRAEDTAVYYCARWNYWGQGTLVTVSS
VL: DIQMTQSPSSLSASVGDRVTITCRASQDVGWSVAWYQQKPGKAPKLLIYGSRWLYSGVPSRFSGSGSGTDFTLTISSLQPEDFATYYCQQGYNGPLTFGQGTKVEIKR
On to B6, for which the concentration for a half-maximal effect (EC50) in test [1] was found to be 3.32 nM; in test [2], 0.918 nM.

B7: NP4 (antibody, V domains shown)
VH: EVQLVESGGGLVQPGGSLRLSCAASGFTISNSSIHWVRQAPGKGLEWVAGIGPSGGYTFYADSVKGRFTISADTSKNTAYLQMNSLRAEDTAVYYCARFHSHNSYYSYSHYGYMDYWGQGTLVTVSS
VL: DIQMTQSPSSLSASVGDRVTITCRASQDVGWGVAWYQQKPGKAPKLLISGPSSLYSGVPSRFSGSGSGTDFTLTISSLQPEDFATYYCQQYFNYPITFGQGTKVEIKR
With B7, the EC50 turned out to be 2.11 nM in test [1], 0.862 nM in test [2] and 4.02 nM in test [3].

B8: NP16 (antibody, V domains shown)
VH: EVQLVESGGGLVQPGGSLRLSCAASGFTIGNSGIHWVRQAPGKGLEWVAWIGPYWGFTSYADSVKGRFTISADTSKNTAYLQMNSLRAEDTAVYYCARFGNHWHLFMDYWGQGTLVTVSS
VL: DIQMTQSPSSLSASVGDRVTITCRASQDVGSYVAWYQQKPGKAPKLLISWTTGLYSGVPSRFSGSGSGTDFTLTISSLQPEDFATYYCQQYFSYPVTFGQGTKVEIKR
As to B8, the values for the EC50 in test [1], in test [2] and in test [3] were 4.41 nM, 0.919 nM and 0.239 nM, respectively.

B9: NP15 (antibody, V domains shown)
VH: EVQLVESGGGLVQPGGSLRLSCAASGFTISNWYIHWVRQAPGKGLEWVAGIGPYGGSTYYADSVKGRFTISADTSKNTAYLQMNSLRAEDTAVYYCARFHWDHLHGMDYWGQGTLVTVSS
VL: DIQMTQSPSSLSASVGDRVTITCRASQDVDNNVAWYQQKPGKAPKLLISYSTGLYSGVPSRFSGSGSGTDFTLTISSLQPEDFATYYCQQYWNYPITFGQGTKVEIKR
As for B9, the EC50 in test [1] came out at 2.79 nM; in test [2] it was 0.806 nM; in test [3] it was 0.249 nM.

B10: NP8 (antibody, V domains shown)
VH: EVQLVESGGGLVQPGGSLRLSCAASGFTINSFGIHWVRQAPGKGLEWVAGIGPFGGSTFYADSVKGRFTISADTSKNTAYLQMNSLRAEDTAVYYCARGFYWFDYWGQGTLVTVSS
VL: DIQMTQSPSSLSASVGDRVTITCRASQDVDDSVAWYQQKPGKAPKLLIYWTRYLYSGVPSRFSGSGSGTDFTLTISSLQPEDFATYYCQQGYNYPLTFGQGTKVEIKR
As to B10, the values for the EC50 in test [1] and in test [2] were 2.33 nM and 0.752 nM, respectively.

B11: NP18 (antibody, V domains shown)
VH: EVQLVESGGGLVQPGGSLRLSCAASGFTISGGGIHWVRQAPGKGLEWVASIWPSWGSTSYADSVKGRFTISADTSKNTAYLQMNSLRAEDTAVYYCARFHNGGFLVMDYWGQGTLVTVSS
VL: DIQMTQSSSSLSASVGDRVTITCRASQDVGYYVAWYQQKPGKAPKLLIYGPRFLYSGVPSRFSGSGSGTDFTLTISSLQPEDFATYYCQQYSNWPITFGQGTKVEIKR
B11 had an EC50 in test [3] of 0.168 nM.

B12: NP10 (antibody, V domains shown)
VH: EVQLVESGGGLVQPGGSLRLSCAASGFTIDNGSIHWVRQAPGKGLEWVAWIWPFGGSTSYADSVKGRFTISADTSKNTAYLQMNSLRAEDTAVYYCARSWSSGYDYWGQGTLVTVSS
VL: DIQMTQSPSSLSASVGDRVTITCRASQDVSWSVAWYQQKPGKAPKLLISGSTWLYSGVPSRFSGSGSGTDFTLTISSLQPEDFATYYCQQYSNSPITFGQGTKVEIKR
With B12, the 50% effective concentration (EC50) in test [1] is 3.3 nM; in test [2], 0.798 nM.

B13: NP17 (antibody, V domains shown)
VH: EVQLVESGGGLVQPGGSLRLSCAASGFTISGGSIHWVRQAPGKGLEWVASIWPFGGSTFYADSVKGRFTISADTSKNTAYLQMNSLRAEDTAVYYCARFGHGHNVIMDYWGQGTLVTVSS
VL: DIQMTQSPSSLSASVGDRVTITCRASQDVGYSVAWYQQKPGKAPKLLISSPGGLYSGVPSRFSGSGSGTDFTLTISSLQPEDFATYYCQQYYDYPVTFGQGTKVEIKR
On to B13, for which the EC50 was 3.28 nM in test [1], 1.02 nM in test [2] and 28.7 nM in test [3].

B14: NP19 (antibody, V domains shown)
VH: EVQLVESGGGLVQPGGSLRLSCAASGFTISSWGIHWVRQAPGKGLEWVAGIGPFWGYTSYADSVKGRFTISADTSKNTAYLQMNSLRAEDTAVYYCARFGVDNYGYMDYWGQGTLVTVSS
VL: DIQMTQSPSSLSASVGDRVTITCRASQDVSGWVAWYQQKPGKAPKLLISWSTGLYSGVPSRFSGSGSGTDFTLTISSLQPEDFATYYCQQYFNFPVTFGQGTKVEIKR
B14: the 50% effective concentration (EC50) in test [1] was determined as 5.37 nM; in test [2], 0.863 nM; in test [3], 0.304 nM.

B15: NP7 (antibody, V domains shown)
VH: EVQLVESGGGLVQPGGSLRLSCAASGFTISNGGIHWVRQAPGKGLEWVAGIGPYGGFTSYADSVKGRFTISADTSKNTAYLQMNSLRAEDTAVYYCARFYSNYYGYHGVMDYWGQGTLVTVSS
VL: DIQMTQSPSSLSASVGDRVTITCRASQDVFGWVAWYQQKPGKAPKLLISYSASLYSGVPSRFSGSGSGTDFTLTISSLQPEDFATYYCQQYFNYPLTFGQGTKVEIKR
As to B15, the results for the 50% effective concentration (EC50) in test [1] and in test [2] were 2.36 nM and 0.9 nM, respectively.

B16: NP13 (antibody, V domains shown)
VH: EVQLVESGGGLVQPGGSLRLSCAASGFTINNYGIHWVRQAPGKGLEWVASIGPYGGSTYYADSVKGRFTISADTSKNTAYLQMNSLRAEDTAVYYCARFGYFNWLDMDYWGQGTLVTVSS
VL: DIQMTQSPSSLSASVGDRVTITCRASQDVGYWVAWYQQKPGKAPKLLISSASGLYSGVPSRFSGSGSGTDFTLTISSLQPEDFATYYCQQGWDWPITFGQGTKVEIKR
Turning to B16, the half-maximal effective concentration (EC50) in test [1] is 168 nM; in test [2], 47.9 nM; in test [3] it was 1.68 nM.

B17: NP12 (antibody, V domains shown)
VH: EVQLVESGGGLVQPGGSLRLSCAASGFTIDNGYIHWVRQAPGKGLEWVASIWPSWGSTYYADSVKGRFTISADTSKNTAYLQMNSLRAEDTAVYYCARGFYYYGDYWGQGTLVTVSS
VL: DIQMTQSPSSLSASVGDRVTITCRASQDVGGNVAWYQQKPGKAPKLLISSTAGLYSGVPSRFSGSGSGTDFTLTISSLQPEDFATYYCQQYYDFPLTFGQGTKVEIKR
For the molecule B17, in test [3], the response was half-maximal at 6.09 nM (EC50).

The values are drawn from patent publication US20230212554A1 (published 2023).
